The record followed here is the nanobody polyreactivity screen of Harvey et al. (2022).

The nature of this series: yeast display, Sf9 membrane polyspecificity reagent, FACS + sequencing; frameworks hold sequencing errors. A digest of the protocol:
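Sorting gates, low and high (top ~1%), were placed on anti-HA fluorescence to track expression and on streptavidin fluorescence to track reagent binding. A clone's polyreactivity label is taken from the gate it came out of. The reagent was 10% biotinylated, detergent-solubilized Sf9 membrane, applied for 1 hour at 4 °C to galactose-induced yeast display cells.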
Regarding “QVQLVESGGGLVQAGGSLRLSCAASGNTFVGNAMGWYRQAPGKERELVAVITWSGGSTYYADSVKGRFTISRDNAKNTVYLQMNSLKPEDTAVYYCAARKFGTSVTHRGYWGQGTQVTVSS”, the “polyreactivity (PSR sort gate)” value is listed as “low polyreactivity”.

Take “QVQLVESGGGLVQAGGSLRLSCAASGNTFVYKDMGWYRQAPGKERELVADIRYSGSTYYADSVKGRFTISRDNAKNTVYLQMNSLKPEDTAVYYCAKAYYVLSWMGYWGQGTQVTVSS”: the “polyreactivity (PSR sort gate)” value is recorded as “low polyreactivity”.

With “QVQLVESGGGLVQAGGSLRLSCAASGNTFVYNDMGWYRQAPGKERELVADIRYSGSTYYADSVKGRFTISRDNAMNSVYLQMNSLKPEDTAVYYCAKAYYVLSWMGYWGQGTQVTVSS”, the “polyreactivity (PSR sort gate)” value is listed as “low polyreactivity”.

For the sequence “QVQLVESGGGLVQAGGSLRLSCAASGNTFWPYAMGWYRQAPGKERELVAAISWRGSRTYYADSVKGRFTISRDNAKNTVYLQMNSLKPEDTAVYYCAADYKYVGSEYGYWGQGTQVNVSS”, the “polyreactivity (PSR sort gate)” value is given as “low polyreactivity”.

“QVQLVESGGGLVQAGGSLRLSCAASGNTFWRYTMGWYRQAPGKERELVAAISSSGGSTYYADSVKGRFTISRDNAKNTVYLQMNSLKPEDTAVYYCAADSGSSRSRRGYEYWGQGTQVTVSS”: the “polyreactivity (PSR sort gate)” value is on record as “high polyreactivity”.

Take “QVQLVESGGGLVQAGGSLRLSCAASGNTFWSYAMGWYRQAPGKERELVAAITQRGGSTYYADSVKGRFTISRDNAKNNVDLQMNSLKPEDTAVYYCAADTYYKGDYWGQGTQVTVSS”: the “polyreactivity (PSR sort gate)” value is reported as “high polyreactivity”.

As to “QVQLVESGGGLVQAGGSLRLSCAASGNTFYANTMGWYRQAPGKERELVAAITVRGASTNYADSVKGSFTISRDNAKNTVYLQMNSLKPEDTAVYYCNAVGLRSPWHQDYLIRYDYRGQGTQVTVSS”, the “polyreactivity (PSR sort gate)” value is “low polyreactivity”.

As to “QVQLVESGGGLVQAGGSLRLSCAASGNTFYFNAMGWYRQAPGKERELVAAITSGGNTNYADSVKGRFTISRDHAKNTFNLQMNSLKPEDSAVYYCNVPRFSPIRNYDYWGQGTQVTVSS”, the “polyreactivity (PSR sort gate)” value is recorded as “high polyreactivity”.

For the sequence “QVQLVESGGGLVQAGGSLRLSCAASGNTFYFYAMGWYRQAPGKERELVAAIRWSGSRTYADSVKGRFTISRDNAKNTVYLQMNSLKPEDTAVYYCNADSIWGYDYWGQGTQVTVSS”, the “polyreactivity (PSR sort gate)” value is reported as “high polyreactivity”.

For the sequence “QVQLVESGGGLVQAGGSLRLSCAASGNTFYFYAMGWYRQAPGKERELVASITRRGGSTYYADSVKGRFTISRDNAKNTVYLQMNSLKPEDTAVYYCARYPARYGGYYDYDYWGQGTQVTVSS”, the “polyreactivity (PSR sort gate)” value is listed as “high polyreactivity”.

On to “QVQLVESGGGLVQAGGSLRLSCAASGNTFYGYTMGWYRQAPGKERELVAAISSRGGSTYYADSVKGRFTISRDNAKNTVYLQMISLKPEDTAVYYCAAVRPVKKFPYCYWGQGTQVTVSS”, for which the “polyreactivity (PSR sort gate)” value is on record as “high polyreactivity”.

Consider “QVQLVESGGGLVQAGGSLRLSCAASGNTFYLYAMGWYRQAPGKERELVASITGGTRTNYADSVKGRFTISRDNAKNTVYLQMNSLKPEDTAVYYCAKTYPRTVGKYLSRGGYYYWGQGTQVTVSS”, for which the “polyreactivity (PSR sort gate)” value was “high polyreactivity”.

For “QVQLVESGGGLVQAGGSLRLSCAASGNTFYQYAMGWYRQAPGKERELVAAIDWSGGSTYADSVKGRFTISRDNAKNTVYLQINSLKPEDTAVYYCNASVKPSNVWSRGYDYWGQGTQVTVSS”, the “polyreactivity (PSR sort gate)” value is listed as “low polyreactivity”.

For “QVQLVESGGGLVQAGGSLRLSCAASGNTFYRNAMGWYRQAPGKERELVAAISTTGVSTYYADSVKGRFTISRDNAKNTVYVQMTSLKPEDTAVYYCAAEIIGYHTIYDYWGQGTQVTVSS”, the “polyreactivity (PSR sort gate)” value is given as “low polyreactivity”.

Regarding “QVQLVESGGGLVQAGGSLRLSCAASGNTFYSYAMGWYRPAPGKERELVAAITWGGRTKYADSVKGRFTISRDNAKNTVYLQMNSLKPEDTAVYYCAARLYHGKTKYDYWGQGTQVTVSS”, the “polyreactivity (PSR sort gate)” value is “high polyreactivity”.

Turning to “QVQLVESGGGLVQAGGSLRLSCAASGNTFYVNVMGWYRQAPGKEREFVAAISTRGVSTSYADSVKGRFTISRDNAKNTVYLQMNSLKPEDTAVYYCAASFRRPQPKGTTYGYWGQGTQVTVSS”, the “polyreactivity (PSR sort gate)” value is recorded as “high polyreactivity”.

Consider “QVQLVESGGGLVQAGGSLRLSCAASGNTFYWNAMGWYRRAPGKERELVAAISTTGVSTYYADSVKGRFTISRDKAKNTVYLQMNSLKPEDTAVYFCAAEIIGYHTIYDYWGQGTQVTVSS”, for which the “polyreactivity (PSR sort gate)” value is on record as “low polyreactivity”.

“QVQLVESGGGLVQAGGSLRLSCAASGNTINVNTMGWYRQAPGKERELVAAISKRGGSTYYADSVKGRFTISRDNAKNTVYLQMNSLKPEDTAVYYCAKQVSLPRYHYGSAPYGYWGQGTQVTVSS”: the “polyreactivity (PSR sort gate)” value is “high polyreactivity”.

“QVQLVESGGGLVQAGGSLRLSCAASGNTLAKYAMGWYRQAPGKERELVAAISWSGGRTFYADSVKGRFTISRDNAKNTVYLQMNSLKPEDSAVYYCNKVKGQSFSSYGYWGQGTQVTVSS”: the “polyreactivity (PSR sort gate)” value is “high polyreactivity”.

As to “QVQLVESGGGLVQAGGSLRLSCAASGNTLAYYDMGWYRQAPGKESELVAAITSGGTTNYADSVKGRFTISRDNAKNTVYLQMNSLKPEDTAVYYSAALGIGSSRRFSGYVYWGQGTQVTVSS”, the “polyreactivity (PSR sort gate)” value is reported as “low polyreactivity”.

On to “QVQLVESGGGLVQAGGSLRLSCAASGNTLDAYTMGWYRQAPGKERELVAAISRGGTRTYYADSVKGRFTISRDNAKNTVYLQMNSLKPEDTAVYYCNKVRDYSYDSWGQCTQVTVSS”, for which the “polyreactivity (PSR sort gate)” value is reported as “high polyreactivity”.

For “QVQLVESGGGLVQAGGSLRLSCAASGNTLHVYAMGWYRQAPGKERELVARITGGGRTYYADSVKGRFTISRDNAKNTVYLQMNSLKTEDTAVYYCATDYYGHKVLYDYWGQGTQVTVSS”, the “polyreactivity (PSR sort gate)” value is “low polyreactivity”.

In the case of “QVQLVESGGGLVQAGGSLRLSCAASGNTLRVYALGWYRQAPGKERELVAAISYSSVNTYYADSVKGRFTISRDNAKNTVYLQMNSLKPEDTAVYYCAADYYYYRRTQYDLRGYPYYYWGQGTQVTVSS”, the “polyreactivity (PSR sort gate)” value is “low polyreactivity”.

“QVQLVESGGGLVQAGGSLRLSCAASGNTLTYNVMGWYRQAPGKDWDLVAAISGRGGRTYYADSVKGRFTISRDNAKNTVYLQMNSLKPEDTAVYYCAATSRNGESGGFYYWGQGTQVTVSS”: the “polyreactivity (PSR sort gate)” value was “high polyreactivity”.

Turning to “QVQLVESGGGLVQAGGSLRLSCAASGNTLWRNAMGWYRQAPGKERELVATISSVGTYYADSVKGRFTISRDNAKNSVYFQMNSLKPEDTAVYYCAARIWAFYSRRYFWGQGTQVTVSS”, the “polyreactivity (PSR sort gate)” value is reported as “high polyreactivity”.

With “QVQLVESGGGLVQAGGSLRLSCAASGNTSVPYAMGWYRQAPGKERELVARITWSTGRTYYADSVKGRFTISRDNAKNTVYLQMNSLKPVDTAVYYCATEAWLPGSGGDYWGQVTQVTVSS”, the “polyreactivity (PSR sort gate)” value is given as “low polyreactivity”.

On to “QVQLVESGGGLVQAGGSLRLSCAASGNTYIRNVMGCYRQAPGKERELVAGIRTGGSTFYADSVKGRFTISRDNAKNPVYLQMNSLKPEDTAVYYCAGYQLRLVYGYGYWGQGTQVTVSS”, for which the “polyreactivity (PSR sort gate)” value is “low polyreactivity”.

Turning to “QVQLVESGGGLVQAGGSLRLSCAASGPIFAYNAMGWYRQAPGKERELVAAISYSGGSTYYADSVKGRFTISRDNAKNTVYLQMNSLKPEDTAVYYCNAVYRYRTYRYDYWGQGTQVTVSS”, the “polyreactivity (PSR sort gate)” value is listed as “high polyreactivity”.

Regarding “QVQLVESGGGLVQAGGSLRLSCAASGPIFAYNAMGWYRQATGKERELVAAISYSGGSTYYPDSVKGRFTISRDNEKNSVYLQMNSLKPEDTAVYYCNAVYRYRTYRYDYWGQGTQVTVSS”, the “polyreactivity (PSR sort gate)” value is on record as “high polyreactivity”.

As to “QVQLVESGGGLVQAGGSLRLSCAASGPISAIYDMGWDRQAPGKERELVASISGGTSTYYADSVKGRFTISRDNAKNTVYLQMNSLKPEDTAVYYCNAEASSYHGVEDEYDYWGQGTQVTVSS”, the “polyreactivity (PSR sort gate)” value was “low polyreactivity”.

Regarding “QVQLVESGGGLVQAGGSLRLSCAASGPTFGVYAKGWDRQAPGKEREFVAAISSTGGSTYYADSVKGRFTISRDNAKNTVYLQMNSLKPEDTAVYYCAARLHTYGYSYGYWGQGTQVTVSS”, the “polyreactivity (PSR sort gate)” value was “high polyreactivity”.

“QVQLVESGGGLVQAGGSLRLSCAASGPTFYKYAMGWYRQAPGKERELVATITRRGGSTYYADSVKGRFTISRDNAKNTVYLQMNSLKPEDTAVYYCAKEIFLKGPDGHDYWGQGTQVTVSS”: the “polyreactivity (PSR sort gate)” value was “low polyreactivity”.

Regarding “QVQLVESGGGLVQAGGSLRLSCAASGPTFYKYAMGWYRQAPGKERELVATITRRGGSTYYADSVKGRFTISRDNAKNTVYLQMNSLKPEDTAVYYCAKEIFQKGPDGHDYWGQGTQVTVSS”, the “polyreactivity (PSR sort gate)” value is listed as “low polyreactivity”.

On to “QVQLVESGGGLVQAGGSLRLSCAASGPTLHAYTMGWYRQAPGKERELVAAITRGGGNTYYADSVKGRFTISRDNAKNTVYLQMNSLKPEDTAVYYCNADVSGYLWYEYDYWGQGTQVTVSS”, for which the “polyreactivity (PSR sort gate)” value is “low polyreactivity”.

As for “QVQLVESGGGLVQAGGSLRLSCAASGRICEVYAMGWYRQAPGKERELVAAINSGGSTRYADSVKGRFTISRDNAKNTVYLQMNSLKPEDTAVYYCNARPGYYRYLRGYNYWGQGTQVTVSS”, the “polyreactivity (PSR sort gate)” value is on record as “low polyreactivity”.

Turning to “QVQLVESGGGLVQAGGSLRLSCAASGRICGSYAMGWYRQAPGKERELVAAISWRGTSTYYADSVKGRFTISRDNAKNTVYLQMNSLKPEDTAVYYCAAAVDAFTNKQYYYWGQGTLVTVSS”, the “polyreactivity (PSR sort gate)” value was “low polyreactivity”.

As for “QVQLVESGGGLVQAGGSLRLSCAASGRICGVYAMGWYRQAPGKERELVAAITARGGSTYYADSVKGRFTISRDNAKNTVYLQMNSLKPEVTAVYYCATRLYKRTRTITYGYWGQGTQVTVSS”, the “polyreactivity (PSR sort gate)” value is recorded as “high polyreactivity”.

On to “QVQLVESGGGLVQAGGSLRLSCAASGRICWGYAMGWSRQAPGKERELVARITSGGDTYYADSVKGRFTISRDNAKNTVYLQMNSLKPEDTAVYYCAKSPAVKPYAYRESGFIYDYWGQGTQVTVSS”, for which the “polyreactivity (PSR sort gate)” value is recorded as “low polyreactivity”.

Consider “QVQLVESGGGLVQAGGSLRLSCAASGRIFAAYAMGWYRQAPGKERELVAGISRGGRTYYADSVKGRFTISRDNAKNTVYLQMNSLKPEDTAVYYCAKRATGQYSITAYGYDYWGQGTQVTVSS”, for which the “polyreactivity (PSR sort gate)” value was “low polyreactivity”.

On to “QVQLVESGGGLVQAGGSLRLSCAASGRIFAAYAMGWYRQAPGKERELVAGISRGGRTYYADSVKGRFTISRDNAKNTVYLQMNSLKPEDTAVYYCAKRATGQYSITTYGYDYWGQGTQVTVSS”, for which the “polyreactivity (PSR sort gate)” value is listed as “low polyreactivity”.

For the sequence “QVQLVESGGGLVQAGGSLRLSCAASGRIFADYAMGWYRQAPGKERELVAAIDWSDGSTKYADSVKGRFTISRDKAKNTVYLQMNSLKPEDTAVNYCAADYWPRDGLGWWYDYWGQGTQVTVSS”, the “polyreactivity (PSR sort gate)” value was “low polyreactivity”.
